Here are results for eight sequences from the supplement of paper PMC5998384.

Data set [1] relates to HeLa Kyoto. Kind of data set: thermal stability score vs G1/S (z-score of summed log2 fold changes over temperatures); higher = more thermally stable than in G1/S.
The subject of data set [2] is HeLa Kyoto. Kind of data set: solubility in G1/S (NP-40 vs SDS abundance) (log2 ratio); higher = more soluble. The note with it: cell cycle stage: G1/S.
The test system of data set [3] is HeLa Kyoto. Kind of data set: melting temperature (median over replicates), in situ; higher = more thermally stable.
Data set [4] deals with HeLa Kyoto. Kind of data set: solubility change mitosis vs G1/S (difference of NP-40 vs SDS log2 ratios) (log2 ratio difference); higher = more soluble in mitosis.
Where [5] appears, read: cell cycle stage: early G1 (4.5 h after nocodazole release).
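Throughout, for melting temperature (median over replicates), in situ: HeLa Kyoto cells synchronized by double thymidine or nocodazole block, proteins quantified by TMT10plex mass spectrometry, three independent biological replicates.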
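Throughout, for solubility change mitosis vs G1/S (difference of NP-40 vs SDS log2 ratios): synchronized HeLa Kyoto cells (double thymidine block for G1/S, nocodazole release for mitosis), protein amounts in NP-40 versus SDS lysates quantified by mass spectrometry, three biological replicates.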
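Throughout, for solubility in G1/S (NP-40 vs SDS abundance): HeLa Kyoto cells arrested at G1/S by double thymidine block, proteins quantified by TMT10plex mass spectrometry in mild NP-40 versus SDS extracts, three biological replicates.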
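Throughout, for thermal stability score vs G1/S (z-score of summed log2 fold changes over temperatures): synchronized HeLa Kyoto cells, proteins quantified by TMT10plex mass spectrometry, three biological replicates, mitosis taken 0.5 h after nocodazole release, G1/S directly after double thymidine block.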

For the sequence “MGSRASTLLRDEELEEIKKETGFSHSQITRLYSRFTSLDKGENGTLSREDFQRIPELAINPLGDRIINAFFPEGEDQVNFRGFMRTLAHFRPIEDNEKSKDVNGPEPLNSRSNKLHFAFRLYDLDKDEKISRDELLQVLRMMVGVNISDEQLGSIADRTIQEADQDGDSAISFTEFVKVLEKVDVEQKMSIRFLH [CHP1]”, the thermal stability score with HeLa Kyoto [1] (setting [5]) was -0.997; with HeLa Kyoto [1] (cell cycle stage: mitosis) it was 0.839. Further, the “solubility in G1/S (log2)” value with HeLa Kyoto [2] stood at 0.256. The melting temperature worked out at 51.8 °C in the data set on HeLa Kyoto [3] (cell cycle stage: G1/S) and 52.6 °C with HeLa Kyoto [3] (cell cycle stage: mitosis). The “solubility change mitosis (log2)” value with HeLa Kyoto [4] is -0.016.
For “MACAAARSPADQDRFICIYPAYLNNKKTIAEGRRIPISKAVENPTATEIQDVCSAVGLNVFLEKNKMYSREWNRDVQYRGRVRVQLKQEDGSLCLVQFPSRKSVMLYAAEMIPKLKTRTQKTGGADQSLQQGEGSKKGKGKKKK [SRP19]”, the thermal stability score in the data set with HeLa Kyoto [1] (setting [5]) was 0.816; with HeLa Kyoto [1] (cell cycle stage: mitosis), -0.116. In addition, the “solubility in G1/S (log2)” value in the data set on HeLa Kyoto [2] was found to be 0.299. Moreover, the melting temperature in the data set with HeLa Kyoto [3] (cell cycle stage: G1/S) and in the data set on HeLa Kyoto [3] (cell cycle stage: mitosis) was 50.8 °C throughout. In the data set with HeLa Kyoto [4], the “solubility change mitosis (log2)” value worked out at 0.161.
On to “MSQTAMSETYDFLFKFLVIGNAGTGKSCLLHQFIEKKFKDDSNHTIGVEFGSKIINVGGKYVKLQIWDTAGQERFRSVTRSYYRGAAGALLVYDITSRETYNALTNWLTDARMLASQNIVIILCGNKKDLDADREVTFLEASRFAQENELMFLETSALTGENVEEAFVQCARKILNKIESGELDPERMGSGIQYGDAALRQLRSPRRAQAPNAQECGC [RAB4A]”, for which the thermal stability score in the data set with HeLa Kyoto [1] (setting [5]) is -3.03; in the data set with HeLa Kyoto [1] (cell cycle stage: mitosis), -3.68. For the same sequence, the “solubility in G1/S (log2)” value in the data set on HeLa Kyoto [2] worked out at 0.0401. The melting temperature amounted to 59.5 °C in the data set with HeLa Kyoto [3] (cell cycle stage: G1/S) and 57.6 °C in the data set on HeLa Kyoto [3] (cell cycle stage: mitosis). Moreover, the “solubility change mitosis (log2)” value in the data set with HeLa Kyoto [4] was -0.0763.
On to “MTDQAFVTLTTNDAYAKGALVLGSSLKQHRTTRRLVVLATPQVSDSMRKVLETVFDEVIMVDVLDSGDSAHLTLMKRPELGVTLTKLHCWSLTQYSKCVFMDADTLVLANIDDLFDREELSAAPDPGWPDCFNSGVFVYQPSVETYNQLLHLASEQGSFDGGDQGILNTFFSSWATTDIRKHLPFIYNLSSISIYSYLPAFKVFGASAKVVHFLGRVKPWNYTYDPKTKSVKSEAHDPNMTHPEFLILWWNIFTTNVLPLLQQFGLVKDTCSYVNVLSDLVYTLAFSCGFCRKEDVSGAISHLSLGEIPAMAQPFVSSEERKERWEQGQADYMGADSFDNIKRKLDTYLQ [GYG1]”, for which the thermal stability score in the data set on HeLa Kyoto [1] (setting [5]) was -3.5; in the data set with HeLa Kyoto [1] (cell cycle stage: mitosis), -5.58. The “solubility in G1/S (log2)” value in the data set with HeLa Kyoto [2] was 0.0958. Also, the melting temperature is 56.3 °C in the data set with HeLa Kyoto [3] (cell cycle stage: G1/S) and 52.1 °C in the data set with HeLa Kyoto [3] (cell cycle stage: mitosis). The “solubility change mitosis (log2)” value with HeLa Kyoto [4] is -0.149.
With “MREYKVVVLGSGGVGKSALTVQFVTGTFIEKYDPTIEDFYRKEIEVDSSPSVLEILDTAGTEQFASMRDLYIKNGQGFILVYSLVNQQSFQDIKPMRDQIVRVKRYEKVPLILVGNKVDLEPEREVMSSEGRALAQEWGCPFMETSAKSKSMVDELFAEIVRQMNYSSLPEKQDQCCTTCVVQ [RAP2C]”, the thermal stability score in the data set on HeLa Kyoto [1] (setting [5]) was 1.5; in the data set with HeLa Kyoto [1] (cell cycle stage: mitosis) it was -1.73. For the same sequence, in the data set on HeLa Kyoto [2], the “solubility in G1/S (log2)” value was 0.0732. Besides, the melting temperature in the data set with HeLa Kyoto [3] (cell cycle stage: G1/S) is 56.9 °C; with HeLa Kyoto [3] (cell cycle stage: mitosis), 55.4 °C. Besides, in the data set with HeLa Kyoto [4], the “solubility change mitosis (log2)” value was -0.0697.
Regarding “MSRYGRYGGETKVYVGNLGTGAGKGELERAFSYYGPLRTVWIARNPPGFAFVEFEDPRDAEDAVRGLDGKVICGSRVRVELSTGMPRRSRFDRPPARRPFDPNDRCYECGEKGHYAYDCHRYSRRRRSRSRSRSHSRSRGRRYSRSRSRSRGRRSRSASPRRSRSISLRRSRSASLRRSRSGSIKGSRYFQSPSRSRSRSRSISRPRSSRSKSRSPSPKRSRSPSGSPRRSASPERMD [SRSF7]”, the values for the thermal stability score with HeLa Kyoto [1] (setting [5]) and with HeLa Kyoto [1] (cell cycle stage: mitosis) were -4.9 and -9.15, respectively. Also, the “solubility in G1/S (log2)” value in the data set with HeLa Kyoto [2] was -1.02. In addition, the values for the melting temperature in the data set on HeLa Kyoto [3] (cell cycle stage: G1/S) and in the data set with HeLa Kyoto [3] (cell cycle stage: mitosis) were 50.4 °C and 50.5 °C, respectively. For the same sequence, the “solubility change mitosis (log2)” value with HeLa Kyoto [4] worked out at 0.665.
On to “MADLSLLQEDLQEDADGFGVDDYSSESDVIIIPSALDFVSQDEMLTPLGRLDKYAASENIFNRQMVARSLLDTLREVCDDERDCIAVLERISRLADDSEPTVRAELMEQVPHIALFCQENRPSIPYAFSKFLLPIVVRYLADQNNQVRKTSQAALLALLEQELIERFDVETKVCPVLIELTAPDSNDDVKTEAVAIMCKMAPMVGKDITERLILPRFCEMCCDCRMFHVRKVCAANFGDICSVVGQQATEEMLLPRFFQLCSDNVWGVRKACAECFMAVSCATCQEIRRTKLSALFINLISDPSRWVRQAAFQSLGPFISTFANPSSSGQYFKEESKSSEEMSVENKNRTRDQEAPEDVQVRPEDTPSDLSVSNSSVILENTMEDHAAEASGKPLGEISVPLDSSLLCTLSSESHQEAASNENDKKPGNYKSMLRPEVGTTSQDSALLDQELYNSFHFWRTPLPEIDLDIELEQNSGGKPSPEGPEEESEGPVPSSPNITMATRKELEEMIENLEPHIDDPDVKAQVEVLSAALRASSLDAHEETISIEKRSDLQDELDINELPNCKINQEDSVPLISDAVENMDSTLHYIHSDSDLSNNSSFSPDEERRTKVQDVVPQALLDQYLSMTDPSRAQTVDTEIAKHCAYSLPGVALTLGRQNWHCLRETYETLASDMQWKVRRTLAFSIHELAVILGDQLTAADLVPIFNGFLKDLDEVRIGVLKHLHDFLKLLHIDKRREYLYQLQEFLVTDNSRNWRFRAELAEQLILLLELYSPRDVYDYLRPIALNLCADKVSSVRWISYKLVSEMVKKLHAATPPTFGVDLINELVENFGRCPKWSGRQAFVFVCQTVIEDDCLPMDQFAVHLMPHLLTLANDRVPNVRVLLAKTLRQTLLEKDYFLASASCHQEAVEQTIMALQMDRDSDVKYFASIHPASTKISEDAMSTASSTY [PPP4R1]”, for which the thermal stability score in the data set with HeLa Kyoto [1] (setting [5]) was -0.471; with HeLa Kyoto [1] (cell cycle stage: mitosis), -0.62. Moreover, the “solubility in G1/S (log2)” value with HeLa Kyoto [2] was -0.0857. The values for the melting temperature with HeLa Kyoto [3] (cell cycle stage: G1/S) and in the data set with HeLa Kyoto [3] (cell cycle stage: mitosis) were 51.6 °C and 50.8 °C, respectively. Moreover, the “solubility change mitosis (log2)” value in the data set with HeLa Kyoto [4] is -0.155.
For “MSSDFEGYEQDFAVLTAEITSKIARVPRLPPDEKKQMVANVEKQLEEAKELLEQMDLEVREIPPQSRGMYSNRMRSYKQEMGKLETDFKRSRIAYSDEVRNELLGDDGNSSENQRAHLLDNTERLERSSRRLEAGYQIAVETEQIGQEMLENLSHDREKIQRARERLRETDANLGKSSRILTGMLRRIIQNRILLVILGIIVVITILMAITFSVRRH [VTI1A]”, the thermal stability score with HeLa Kyoto [1] (setting [5]) is -4.18; with HeLa Kyoto [1] (cell cycle stage: mitosis) it was -3.25. In addition, the “solubility in G1/S (log2)” value with HeLa Kyoto [2] is 0.0215. For the same sequence, the melting temperature was 55.6 °C in the data set on HeLa Kyoto [3] (cell cycle stage: G1/S) and 55.8 °C in the data set on HeLa Kyoto [3] (cell cycle stage: mitosis). Also, in the data set with HeLa Kyoto [4], the “solubility change mitosis (log2)” value is -0.165.
